Assays:
Siah = target: T1, Siah (Mus musculus, UniProt P61092); experiment: Interaction studies using bacterially expressed proteins; assay type: binding
T1 construct: made in house; host or cells: bacteria
T1 sequence (P61092 1-282): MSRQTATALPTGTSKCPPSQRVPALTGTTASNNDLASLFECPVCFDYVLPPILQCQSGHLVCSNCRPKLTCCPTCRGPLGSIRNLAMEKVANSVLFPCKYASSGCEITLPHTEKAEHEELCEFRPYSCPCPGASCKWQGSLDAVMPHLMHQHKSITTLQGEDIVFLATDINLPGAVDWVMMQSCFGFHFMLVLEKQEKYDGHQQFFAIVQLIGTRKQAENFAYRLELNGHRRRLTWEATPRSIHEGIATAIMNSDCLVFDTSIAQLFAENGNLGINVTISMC
Description: PHYL is known to interact and function with SINA, the Drosophila orthologue of mammalian Siah, in the targeted degradation of the transcriptional repressor tramtrack 88 (TTK88). Applicants have shown that it interacts similarly with mammalian Siah.

[1] = target: T2, mutant form of Siah (Leu211 to Arg) (Mus musculus, UniProt P61092, L211R); experiment: Binding of PHYL to mutant form of Siah; details: method not stated
T2 construct: made in house
T2 sequence (P61092 80-282 L211R): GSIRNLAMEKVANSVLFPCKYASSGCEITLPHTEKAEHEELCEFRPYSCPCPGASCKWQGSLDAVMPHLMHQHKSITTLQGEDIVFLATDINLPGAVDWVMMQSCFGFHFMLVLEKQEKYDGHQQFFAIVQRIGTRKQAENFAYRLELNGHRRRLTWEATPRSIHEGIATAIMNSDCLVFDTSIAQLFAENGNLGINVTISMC

B1: PHYL: phyllopod (PHYL) protein from Drosophila (protein, UniProt Q27934 1-400, looked up)
Protein phyllopod: MSTNQQQQANPSAAVAAPAASSEYLKRTCLICGCHTNQTINIYEPRSGPNIVQLIQAKFKFQPLNEDKFLCFSCNNWLINWHSLQAVNSNEAESQSQSPSHMGNSVLQQERTKLRPVAMVRPTVRVQPQSQPQLQPQVPINPTPAPIVYSKRRASRRSASVSRMSRVLRQCCVESLRRSPKKRNQQSVFVCLRPQGQKRSNAICKVECVAPRRKPVERLVKDVAATATPTPVLNTQSTPTYQRFPQPSVDGKVVAMFRRLGTTLSREEPAAYSAESNPACSKLPQIMSPLKEAPRWTRDLDDDEILLEFDTAISEVLPTARYQVTHEENKENQQAQEMELELEEEEEVDGRAELEVVQEAEAPLEPQSHHKQGNSHQNSHQASIQLAGLRLPMGLSISLV
affinity of interaction with Siah (in words) (Siah): high affinity | binding to mutant form of Siah [1]: does not bind
